Measurements: the DeepSol protein solubility set

Experiment: soluble on expression in E. coli; label from the status in PepcDB or PDB records

Row | Sequence | soluble on expression in E. coli
1 | MAHHHHHHMNIFDHQIKNVDKGNVVAILGAQWGDEGKGKIIDMLSEYSDITCRFNGGANAGHTISVNDKKYALHLLPCGVLYDNNISVLGNGMVIHVKSLMEEIESVGGKLLDRLYLSNKAHILFDIHQIIDSIQETKKLKEGKQIGTTKRGIGPCYSTKASRIGIRLGTLKNFENFKNMYSKLIDHLMDLYNITEYDKEKELNLFYNYHLKLRDRIVDVISFMNTNLENNKKVLIEGANAAMLDIDFGTYPYVTSSCTTVGGVFSGLGIHHKKLNLVVGVVKSYLTRVGCGPFLTELNNDVGQYLREKGHEYGTTTKRPRRCGWLDIPMLLYVKCINSIDMINLTKLDVLSGLEEILLCVNFKNKKTGELLEKGCYPVEEEISEEYEPVYEKFSGWKEDISTCNEFDELPENAKKYILAIEKYLKTPIVWIGVGPNRKNMIVKKNFNLN | soluble
2 | MTLPPDAPSRHRLVHALERTADLLDILGGEDFKSRAYRSAARSLEELNEETPELLAREFTGIPKVGKGIAAELSDFARSGTFAPLEAAAGQLPPGLLDLLGVRGLGPKKIRSLWLAGIDSLERLREAAESGELAGLKGFGAKSAATILENVVFLFEARQRQSLRAGLAVAEELAGALTDLSPAPAGDVRRGLETVRAAELTVTGTPDDVLARLPELTVQGDGVLSGDYEGVPVEIACAPAEARGALDLLRSGEHFAGQVQAAAQARGFTLTAGGLSRGDEVLPTPTEAVVFHALDLPFRPAEYREPEHDDLWQTLPDPAELVTVGDLRGMIHTHSTWSDGGASIREMAEATLTLGHEFLGTADHSRAAYYANGLTIERLREQLKEIRELQRAGLPIVAGSEVDILDDGSLDFPDDVLGELDYVVVSVHSNFTLDAARQTERLIRAVSHPLVTVLGHATGRLLLRRPGYALDLDAVLGACEANGTVVEINANAARLDLDWREALRWRERLKFAINTDAHVPGGLRDARYGVMQARKAGLTPAHVVNSLGRAEFLDFVARQRAARGAPGPADRAHHHHHH | soluble
3 | MPFKPLVTAGIEGLLNTFLYRSPALKSARTRLQGKVLCVKLKGFSMPLVLVFSERQVDVLGAWEGEADCTVITQASVLPKLRDRQQLATLIRSGELEVQGDIQVVQNFVALADLAEFDPAELLAPYTGDIAAESIGKVVRGGAKFLRHGFQRQQRYAAEAITEEWRMAPGPLEVAWFAEETAAVERAVDSLTTRLEKLEAK | not soluble
4 | MRLLIVLSALLIPCLAQLSEDSSELEFGGQQAQRPSPDGPLFPRFLMHVPRFARKEFFDIVSNDQLSQDQQNEQLTIWAKAFNVTDEFNAWTKKIQEQKEAVSKNVEAVASNITTVYTQLEEILSNSNLTRRDQHDQIRKLATTFPREVRALFFIARNYRPEGRSPIFGQGIGMGKKPQSSMVPFIFQQQQPPMMMFGQQPFMPAGPMMMNRFQQTGSQQNFQSRRGGRGDGPGFVPGTQDNNQRGSGERGQRQNFGPSDNLTNGNQFSKKQFARGPSSMNSDLSENSQHSDSNSQFDFPRGPGGRGGRGQGPDFGPGGQGGRGQGPDFGPQDDFPGRRGSGGPGGRGGRGQGPDFEPQDDFPGRRGSGGPGRRGGRGQGPDFGPQDDFPGRRGSGGPGGRGGRGQGPDFGPGRQGGRGQGPDFGPQDDFSGRRGSGGPGGRGGRGQEPDFGPGGQGGRGQGPDFGPQDDFPGRRGSGGPEGRDGRGQGPDFGPGSQGGRGQDSDSGSQDAFPGRRGSGGPGGRGQGPDFGPQDDFPGRRGSGGPEGRDGRGQGPDFGPGSQGGRGQDSDSGSQDAFPGRRGPGGPGGLGGRGQGPDFGPGGQGDRGQGPDFGARSQGNRGQGPAFESRQPRQFDDADTSSAPSQKYFQRQMNSGMRFDQSSGFGMRKSQSTQQNYENFAEN | not soluble
5 | MSLIVDREELEYDGSQLRRAFAHERYGIKGRAVVVFRGPMDVRTEYTADAEDVGSPIRGNDVLHLLVDDPTRADPLVAGLLQRLLVVVTKEVIEKELSTDLDRDGDDLLHDGRKLTVSVFKPAGPGSLAHLGINVTTEGVPVPASSLRDLGYRGDPLDLGRRVAVEFVREITDVELDLTKIRWEGHHHHHH | soluble
6 | MSQIIIKTPQEIEKMRVAGRLAAEVLEMITPFVKEGVTTAELDKICHEYIVKEQDAYPAPLNYHGFPKSICASINHVVCHGIPADKKLKNGDILNIDITVKKDGYHGDTSKMFMIGEPSVMAKKLVEVTHECLWKGIEVVKPGNHFGDIGAAIEKHAKKFGYSIVDAFCGHGIGANFHEPPHVMHHGKAGTGAMFEEGMIFTIEPMINIGKRAVSVLKDGWTAVTKDRSLSAQWEHTILVTKDGYEVLTLREEEKN | not soluble
7 | MGSDKIHHHHHHMVVDGPRDPRMNMAIDEAILRVGAAPTLRIYMWLPGGLTLGRRQSVEDVNLAEAEKRGYVLVRRPTGGAALLHPWEREITYSLVLDSRHPYYSLDVAESAATIAGGVALALEELGIATRVGGYTPPPGVIGGLCYVRPGSSDVVVAGRKVSGSAQRRIGGRLLQHGTLLLRFDPEEWLSIIPVKGAGPSDLASRIAGIEDLAGRSYSFSEVADALVKGFSKALGLEPEPSGLEGREVEEALRLYRKKYSSPRWNLEGDEP | not soluble
8 | MSLSTLLISAPHLAFKIIATGVSLPPDRVESSTLDRKLNKPVGYVEQRSGVRHRYHATADANQAELAAAALHDALERHGINPSSIDLLISASAIAYQALPCTAVHILKIAGLAPRIAGFDINSSCVSFISALQVAAGLLNAGTYQRIAIVSADLASRGIDWNDEESSLIFGDGAACAIVERGDGRSGILASLVEMYPTGSELCEIRAGGTRCNPRSGMDNDDFLFHMQGKRLFRQASGIIEDYFQRLLEKSGLTLADIATVIPHQASHLSLAHMRKRLHVPTDVLVDIYRDHGNQVAASIPTALHAAVMSGRFSPGKPVMLIGTAAGLTLAGMVLLEGHHHHHH | not soluble
9 | MGQDHIRYDILAQDALRGVIRKVLGEVAATGRLPGDHHFFITFLTGAPGVRISQHLKSKYAEQMTIVIQHQFWDMKVTETGFEIGLSFSDTPEKLVIPYNAIRGFYDPSVNFELEFDVPLAKEEEMEEAEITAYPVSHEAKPASETPKSGEEKKEGSVVSLDAFRKKQLEHHHHHH | soluble
10 | GMAQAQTQGQEEEQKKKILIVVTHGPEDLDRTYAPLFMASISASMEYETSVFFMIKGPKLLDKKWQEEERKKGGNPFIHFFDMAKENGVKMYVCVQSLKDMCHMKEDDVVEGIELVGGSTLIDLTLEADRTLFF | soluble
11 | MDSLQKTTMIDLLLRSDKRRKILLFLKEGPKNIEEITALLGSSCTAVLPQMKKLIEKGLVRQENKIYRLSTVGMIVTEKLVPLLGTIEVFENNLEYWAQKDLTGIPAFLRLKLEMLSQYEVIEPQLNRMFEPPEEFINSLKKSTEIMYFSSFFQPCFSGFDQDFLKKRTDSTFIFTKNFFERISSPHSEEYDELLLPERANLYVYDGISSLVSLTVTERFMALMLLNKKGKLDQNLLISSESEAIEWGKELFMYYREISKKIYGDKADRLLSEKIIPPGKKSGYGTGSDLLQISCLRKTKYKMAAALEHHHHHH | not soluble
12 | MNIEALERLRGWMRAKGFSRFYVVRPENFAWLVGGANTLGMGESVAYLEVGEEVVLHTSAIEHPRMVEEEAPGLPARVHPWYAFPPPPGPNDLEHDLTPLRLVLSREAQGAFTHLGREAAMAVGEVVRSARPEWTEYALAGALAEALWGRGLRPLLLLVAVDERLFRYRHPLPKGKPLGRAFMAVVCAERRGLVANLTRMASFGHGEVEARYRKVLEVEAAALSASRPGATLGEVFAALQGAYARVGFPRAWGEHHQGGVGGYRSREVVATPGHPLVLEAGMVLAWNPSLSGAKVEDTFLLTEGGLLNLTEDPFWPAVEVEGRRRPDLWRGGG | soluble
13 | GLNPPSAFSGAALACLEKMQASGVEEKCIHIFLIQHALVRKGETGYIPEKSISPVESLPFLQGIETKGENTALLRQAVVLKLNGGLGTGMGLNGPKSLLQVKNGQTFLDFTALQLEHFRQVRNCNVPFMLMNSFSTSGETKNFLRKYPTLYEVFDSDIELMQNRVPKIRQDNFFPVTYEADPTCEWVPPGHGDVYTVLYSSGKLDYLLGKGYRYMFISNGDNLGATLDVRLLDYMHEKQLGFLMEVCRRTESDKKGGHLAYKDVIDETTGQTRRRFVLRESAQCPKEDEDSFQNIAKHCFFNTNNIWINLMELKKMMDEQLGVLRLPVMRNPKTVNPQDSQSTKVYQLEVAMGAAISLFDRSEAVVVPRERFAPVKTCSDLLALRSDAYQVTEDQRLVLCEERNGKPPAIDLDGEHYKMIDGFEKLVKGGVPSLRQCTSLTVRGLVEFGADVSVRGNVVIKNLKEEPLIIGSGRVLDNEVVVVE | soluble
